According to US20250163116A1, “NEW METHOD TO TREAT INFECTIOUS DISEASES” (INSERM (INSTITUT NATIONAL DE LA SANTÉ ET DE LA RECHERCHE …, priority 2022, published 2025):

Columns and labels:
[1] = system: Src kinase and VE-cadherin phosphorylation; assay: Src kinase and VE-cadherin phosphorylation in infected HDMECs; assay type: cell-based, human; conditions: added 30 min after initiation of infection
From the text: (§1) In contrast to brain microvascular endothelial cells that resist to meningococcal infection, the integrity of dermal microvascular endothelial cell (HDMECs) monolayer was massively impaired upon infection, as observed with the loss of adherens junctions and cell detachment (data not shown). Since HDMEC poorly produces ANGPTL4 as compared to HBMEC (data not shown), we analysed whether the addition of recombinant human ANGPTL4 might exert a protective effect on these cells. […] Additionally, while infection was accompanied by the massive release of inflammatory cytokines (TNF-α, IL-6, IL-8), markers of vascular inflammation (E-selectin, ICAM-1, VCAM-1), and markers of endothelial cell alteration (Endoglin, Thrombomodulin), all these markers were reduced by 35 to 80% upon treatment with ANGPTL4 (data not shown).

[2] = system: HDMEC infected with N. meningitidis 2C4.3; assay: Caspase-3/7 apoptosis detection in infected HDMECs (IncuCyte); assay type: cell-based, human; conditions: Caspase-3/7 reagent, real time over 9 h, 1 μg/mL
Procedure: FIG. 1. Exogenous ANGPTL4 exerts protective effects on dermal microvascular endothelial cells infected by N. meningitidis. A. HDMECs were infected with Nm 2C4.3 for 30 min and treated with 1 μg/mL of recombinant human ANGPTL4 for 2 h 30. Cells were fixed and stained for cellular actin, VE-cadherin and DAPI and analyzed by fluorescent microscopy. Quantifications of VE-cadherin enrichment at intercellular junctions and of intercellular spaces area were performed on 30 fields with Image J software. Kruskal-Wallis test ** P<0.001; P<0.0001. B. HDMEC were either uninfected or infected with N. meningitidis 2C4.3 for 30 min and treated with 1 μg mL−1 of recombinant human ANGPTL4, its N-terminal portion (nANGPTL4) or its C-terminal portion (cANGPTL4) for 2 h 30. Caspase-3/7 reagent was added to detect apoptosis in real time over 9 h using the IncuCyte® Live-Cell Analysis System

[3] = system: HDMECs infected with N. meningitidis; assay: Release of inflammatory cytokines and markers of vascular inflammation and endothelial alteration by infected HDMECs; assay type: cell-based, human; conditions: data not shown
From the text: as §1

[4] = system: HDMECs infected with S. pneumoniae TIGR4; assay: Integrity of HDMECs infected with S. pneumoniae; assay type: cell-based, human; conditions: 1 μg/mL for 2 h after 30 min infection
Procedure: FIG. 6: ANGPTL4 protects dermal microvascular endothelial cells from infection by S. pneumoniae. HDMECs were infected with S. pneumoniae TIGR4 for 30 min and treated with 1 μg/mL of recombinant human ANGPTL4 for 2 h. Cells were fixed and stained for cellular actin, VE-cadherin and DAPI and analyzed by fluorescent microscopy. Quantifications of VE-cadherin enrichment at intercellular junctions was performed on 30 fields with Image J software. Kruskal-Wallis test *** P<0.0001.
To address whether ANGPTL-4 could also provide vascular protection from Gram-positive bacteria, we investigated the effect of ANGPTL-4 on HDMECs exposed to infection by the Gram-positive bacterium Streptococcus pneumoniae, one of the major causative agents of pneumonia, sepsis, meningitis and other morbidities.

[5] = system: SCID mice grafted with human skin infected with Nm 2C4.3; assay: Outcome of meningococcal infection in SCID mice grafted with human skin (survival, with or without antibiotics); assay type: in vivo
Procedure: A-D, SCID mice grafted with human skin were infected intravenously with Nm 2C4.3 wild-type strain (5×10^6 bacteria); 2 h after bacterial challenge, mice received recombinant human ANGPTL4 (1 μg, intravenously), cefotaxime (200 mg kg-1, intraperitoneally) alone or in combination with ANGPTL4 or vehicle as a control. 18 h following bacterial challenge, ANGPTL4 (1 μg) and cefotaxime (200 mg kg-1) were re-administered. This experiment was performed twice with n=3 or 4 mice per group, using skin from two different donors. A, A schematic representation of the protocol used in vivo. B, Bacteraemia 4, 18, 48 and 72 h post-infection (mean±s.e.m.). C, Survival curve: * P=0.0275; two-sided log-rank Mantel-Cox survival analysis. D, Thrombosis within the skin grafts at 4 h post-infection was assessed by immunofluorescence analysis and quantified as described in FIG. 8 (error bars show mean±s.e.m.; 40 vessels per mouse were analysed; n=4 mice per group; *** P<0.001; two-tailed Student's t-test.
Six-week-old CB17/Icr-Prkdcscid female mice were obtained from Janvier Labs. Human skin tissues were obtained from adult patients undergoing plastic surgery in the Service de Chirurgie Plastique et Reconstructive of the Groupe Hospitalier Saint-Joseph. […] Experimental procedures were performed as previously described in accordance with the guidelines of the Institut National de la Santé et de la Recherche Médicale and conformed to the European ethical legislation (Directive 2010/63/EU). The experimental protocol was approved by the Animal Experimentation Ethics Committee of the Université Paris Descartes (consent forms CEEA34.O.J.L.039.12 and 2018012515596498). […] A skin flap was created and a full thickness human skin graft was placed onto the wound bed. The transplants were held in place with 6-0 non-absorbable monofilament suture materials, and the flap was then sutured above the transplant. Grafted mice were infected 4-6 weeks after human skin transplantation. N. meningitidis was grown overnight at 37° C. on GCB agar plates prepared without iron and supplemented with 15 μM deferoxamine (Desferal, Novartis). Bacterial colonies were harvested and cultured in RPMI media with 1% BSA medium and 0.06 μM deferoxamine with gentle agitation to reach the exponential phase of growth. Bacteria were then resuspended in physiological saline solution. Mice were infected intravenously with 200 μl (5×10^6 bacteria) of this bacterial suspension. A 10 mg dose of human holotransferrin (R&D Systems) was administered intraperitoneally just before infection. Mice were killed at 4 h after infection. Human skin grafts were carefully collected using a sterile cutter. The tissue was washed in PBS and fixed overnight at 4° C. in 4% paraformaldehyde in phosphate buffer. After washing in phosphate buffer, the specimens were embedded in OCT medium and then frozen at −80° C. Sections of the dermis (7 μm thick) were immobilized on Superfrost Plus microscope slides and subjected to immunofluorescence analysis. Sections were incubated with the primary antibodies for 1 h in PBS/3% BSA then DAPI was added to Alexa-conjugated secondary antibodies for 1 h. After additional washing, coverslips were mounted in glycergel (Dako) and were further analysed using a slide scanner (Lamina, Perkin Elmer). Analysis of the images was performed using ImageJ software (NIH). […]
We then analysed whether ANGPTL4 could provide a beneficial effect when administered with antibiotics.

[6] = system: HDMECs infected with Nm 2C4.3; assay: Integrity of HDMEC monolayers infected with N. meningitidis (VE-cadherin at intercellular junctions, immunofluorescence); assay type: cell-based, human; conditions: uninfected HDMECs

B1: ANGPTL4: Recombinant human ANGPTL4 (Angiopoietin-like 4), full length, SEQ ID NO: 1, purchased from R&D Systems (protein, listed as Homo sapiens)
chain: MSGAPTAGAALMLCAATAVLLSAQGGPVQSKSPRFASWDEMNVLAHGLLQLGQGLREHAERTRSQLSALERRLSACGSACQGTEGSTDLPLAPESRVDPEVLHSLQTQLKAQNSRIQQLFHKVAQQQRHLEKQHLRIQHLQSQFGLLDHKHLDHEVAKPARRKRLPEMAQPVDPAHNVSRLHRLPRDCQELFQVGERQSGLFEIQPQGSPPFLVNCKMTSDGGWTVIQRRHDGSVDFNRPWEAYKAGFGDPHGEFWLGLEKVHSITGDRNSRLAVQLRDWDGNAELLQFSVHLGGEDTAYSLQLTAPVAGQLGATTVPPSGLSVPFSTWDQDHDLRRDKNCAKSLSGGWWFGTCSHSNLNGQYFRSIPQQRQKLKKGIFWKTWRGRYYPLQATTMLIQPMAAEAAS
Src kinase and VE-cadherin phosphorylation [1]: significantly reduced
cell apoptosis induced by meningococcal infection [2]: inhibited cell apoptosis
reduction of TNF-α, IL-6, IL-8, E-selectin, ICAM-1, VCAM-1, Endoglin, Thrombomodulin release [3]: 35 to 80%
endothelial integrity (cell junction organization) upon S. pneumoniae infection [4]: preserved endothelial integrity
mice surviving the infection ([5]; 1 μg/mouse i.v., 2 h post-infection, all control mice died): 15%
signs of thrombosis and vascular leakage in human dermal vessels of grafts ([5]; at the time of death, data not shown): reduced signs of thrombosis and vascular leakage
effect on organization of the adherens junctions formed by HDMECs [6]: no significant effect
